The DeepSol protein solubility set

Experiment: soluble on expression in E. coli; label from the status in PepcDB or PDB records

Sequence	soluble on expression in E. coli
ELVMTQSPKFMSTSVGDRVSVTCKASQNVGTHVAWYQQKPGQSPKTLIYSASYRYSGVPDRFTGSGSGTDFTLTIRDVQSEDAAEYFCQQYNLFPVTFGGGTKLEIKRTVAAPSVFIFPPSDEQLKSGTASVVCLLNNFYPREAAVAWKVDNALQSGNSQESVTEQDSADSTYSLSSTLTLSKADYEKHKVYACEVTHQGLSSPVTKSFNRGE	soluble
EMETYVNKLHEGSTYTAAVQYNVLEKDDDPASLTIWVPMFQSSMPADLLIKELANVNILVKQISTPKGPSLRVMINSRSAVLAQMPSKFTICANVSLDDRSKLAYDVTTPCEIKACSLTCLKSKNMLTTVKDLTMKTLNPTHDIIALCEFENIVTSKKVIIPTYLRSISVRNKDLNTLENITTTEFKNAITNAKIIPYSGLLLVITVTDNKGAFKYIKPQSQFIVDLGAYLEKESIYYVTTNWKHTATRFAIKPRED	soluble
ENEIERPEDMRVRTLANKSKMKVSIVQQIDRKVALDDIAVSHGLDFPELLSEVETIVYSGTRINIDYFINEVMDEDHLEDIFEYFKESTTDSLEEAMQELGKDYSEEEIRLVRIKFLSEMAN	soluble
ENLKLGFLVAQPEEPASQTQWKFADKAGKDLGFEVIKIAVPDGEKTLNAIDSLAASGAKGFVISTPDPKLGSAIVAKARGYDMKVIAVDNQFVNAKGKPMDTVPLVMEAATKIGERQGQELYKEMQKRGWDVKESAVMAITANELDTARRRTTGSMDALKAAGFPEKQIYQVPTKSEDIPGAFDAANSMLVQHPEVKHWLIVGMNDSTVLGGVRATEGQGFKAADIIGIGINGVDAVSELSKAQATGFYGSLLPSPDVHGYKSSEMLYNWVAKDVEPPKFTEVTDVVLITRDNFKEECEKKGLGGK	soluble
ENVYGYLMKYTNLVTGWQYRFFVLNNEAGLLEYFVNEQSRNQKPRGTLQLAGAVISPSDEDSHTFTVNAASGEQYKLRATDAKERQHWVSRLQICTQHHTEAIGKNN	soluble
ERVPKTVDVETIRSRIAQIDGVGGVHDVHVWSIDGQQDIATVHVVVDENVNVKDCTTLDRIQKVFHDAGIDHVTVQLEHDTHMSHELPCQH	soluble
EVKVEESGGGLVQPGGSMKLSCVASGFTFSNYWMEWVRQSPEKGLEWVAEIRLKSNNYATHYAESVKGRFTISRDDSKSSVYLQMNNLRAEDTGIYYCTRGGAVGAMDYWGQGTSVTVSSATTTAPSVYPLVPGCSDTSGSSVTLGCLVKGYFPEPVTVKWNYGALSSGVRTVSSVLQSGFYSLSSLVTVPSSTWPSQTVICNVAHPASKVDLIKEPSGP	soluble
EVQLQESGPGLVKPYQSLSLSCTVTGYSITSDYAWNWIRQFPGNKLEWMGYITYSGTTDYNPSLKSRISITRDTSKNQFFLQLNSVTTEDTATYYCARYYYGYWYFDVWGQGTTLTVSSAKTTAPSVYPLAPVSSVTLGCLVKGYFPEPVTLTWNSGSLSSGVHTFPAVLQSDLYTLSSSVTVTSSTWPSQSITCNVAHPASSTKVDKKIEPR	soluble
EVQLQESGPSLVKPSQTLSLTCSVTGDSVTSDFWSWIRKFPGNKLEYMGYISYSGSTYYHPSLKSRISITRDTSKNQYYLQLNSVTTEDTATYYCASWGGDVWGAGTTVTVSSAKTTAPSVYPLAPVCGDTTGSSVTLGCLVKGYFPEPVTLTWNSGSLSSGVHTFPAVLQSDLYTLSSSVTVTSSTWPSQSITCNVAHPASSTKVDKKI	soluble
EVQLQQSGPELVKPGTSVKMSCKASGYTFTDYYMKWVKHSHGKSLEWIGDINPSNGGTLYNQKFKGKATLTVDKSSSTASMQLSRLTSEDSAVYYCSRGDGIHGGFAYWGQGTTVTVSSAKTTAPSVYPLAPVCGDTTGSSVTLGCLVKGYFPEPVTLTWNSGSLSSGVHTFPAVLQSDLYTLSSSVTVTSSTWPSQSITCNVAHPASSTKVDKKIVPQV	soluble
EYKPKKGLASCWLSSKSHTLLNEEDFFTKDERIGIRKDYEGATNDDAFFCQRYYRFKNFKEVEGEKTKVCKQPPVREHDFCFAVLLETHRDIKHEELNKRIVYLGGERQPFLMDLMEVSEETFKLNIESSTLTSDEKHYTVVLLSDAMIEPKLLEGVKFASTEVKDFACLLTHVGTRRFYNKKKKREEQNIEEVETALSHQHELYARGSVFYFDTKEQANQFCEDLEKVPNFHTIGYNHAIIIEPTKTKK	not soluble
FDGNLKRYLKSEPIPESNDGPVKVVVAENFDEIVNNENKDVLIEFYAPWCGHCKNLEPKYKELGEKLSKDPNIVIAKMDATANDVPSPYEVRGFPTIYFSPANKKLNPKKYEGGRELSDFISYLQREAT	soluble
FECGVNSLDEWLKRRALANQHSGASRTFVVADHDSRVYGYYAMAAGAVSHQAATSGVRRNMPDPVPVMVLARLAVDQRAQGIKLGAALLQDAVNRVVNVSHNVGVRALLVHALDDRAKQFYAHYGFKESPQHPM	not soluble
FEPDDVTEDVIEWVYSTFDGSYDEQPFGGDWTDPEPFRWPVTRRQAVQALDHFVTNRLTEFGSYQDAMLEDEWAMSHSLLSTSLNLGLLGPAEVIERAITAYEDGDAPLNSVEGFIRQVLGWREFLRHVYRREM	not soluble
FIKLITSAKKRVWIQTPYLVPDDSVLAALKVAAASGVDVKIMIPDKPDHPFIYRATQYYGRLLMKENIEILIYNGGFLHAKTMIMDDEVCTVGSANQDIRSYKLNFEANAVLYDKKIIDQLEAIFLEDRKKCTTMTPEVVRDM	not soluble
FLHAIIPVHRPLRVGVLTQPVHAEISVADPMLAAVDAAASALSQAGHQLVEVQRPYGDAPFAAFSDILALRSAKIHGQASPLVSWLRDRGGRIGGRRKAKAIAEFLSVRAQLLAAWDVD	not soluble
FNKDGKFKIVQFTDVHFKYGNPASDVALERIGEVLDAEHPDLVIFTGDVVYSSPADKGMLQVLGQVERRHLPFVVTFGNHDNEQGKTRAELYDLIRGVAGNLLPDRGASPSPDYILTMKSSADASKDAALLYCMDSHSYSSLKDVDGYAWLTFGQVSWYRAQSAAYTARNGGKPYPALAFFHIPLPEYNEAAANENAILRGTRMEKACAPQLNTGMFAAMKEAGDVMGVFVGHDHDNDYAVMWKNILLAYGRFTGGNTEYNHLPNGARVIVLNEGTRTFETWIRQKGGVVDSTSYPSDYVKDDWRKR	not soluble
FNQTYQFTGLLNPDGTVIEANDAALDFGGLDRDEIVGKHFADIPWWSHSDTERDNVRDALERAASGEFVRYETEVRGVDGLGTIDFSVKPVTDQDENVTLLVVEGRDIT	not soluble
FNRGGYNFGKSVRHVVDAIGSVAGIRGILKSIR	soluble
FPAISEHFTEDYSSHTEQMLDLVLDSTDMRIEDGKRINPAFMFAAMLWYPLCALADKLMDQHNLCHYDAIMEASNIILDDQVRTIAIPRRHTATIREIWQLQLRLPRRNGKRAFRLMELNKFRAGFDFLEMRGEIEGGDTLKLAKWWETFQNAGREMRQAMAADLDGQAPKSGQRRRKTFRKKKSKPKS	not soluble
FPDGTLGMDAAVQEDHDNGTQLDSLTLASINTDFAFSLYKELVLKNPDTNIVFSPLSISAALALVSLGAKGNTLEEILEGLKFNLTETSEADIHQGFGHLLQRLNQPKDQVQISTGSALFIEKRQQILTEFQEKAKTLYQAEAFTADFQQPRQAKKLINDYVRKQTQGMIKELVSDLDKRTLMVLVNYIYFKAKWKVPFDPLDTFKSEFYCGKRRPVIVPMMSMEDLTTPYFRDEELSCTVVELKYTGNASALFILPDQGRMQQVEASLQPETLRKWKNSLKPRMIDELHLPKFSISTDYSLEDVLSKLGIREVFSTQADLSAITGTKDLRVSQVVHKAVLDVAETGTEAAAATGVKFVPMSAKLYPLTVYFNRPFLIMIFDTETEIAPFIAKIANPK	soluble
FPVETVQIPVNDEYAVHGWLAHGMSGHGAVLLVHSMRSNRLEMLGRARFLNNQGYHVLMIDLQAHGETPGDRITFGARESADVAAAVGYLRSTFPHDRIAAIGATLGAAAIVLANPPLKLDAMILESLHPTFAEAVANRLKLHLGNTGEYLQFLLLPYFSFLLDLPVNQLNPVDRIGNIAIPVLFIAGTLDRHTTQSEVKRLYDAALPPKELWIVEGAGHYNMHTFAGKSYEMQIADFLSTYL	not soluble
FQGNPCECPRALHRVCGSDGNTYSNPCMLTCAKHEGNPDLVQVHEGPCDEHDHDF	soluble
FSDFIANHIFMESRCEGIIRITAISLPFMCIHNCLSNYYYSQKESFLPASSQLVEQLVRIGTIILYVRIKNVSTISIADAVTGNIFGEFAAATYCAIPLFFRSIHNKSMMQKLSCSLREYRYIVKYAFPINANQTVLHLLEGAEAILIPAILCMHGLTKDNAISQFGILTGM	not soluble
FSNKRVLVEKEGEAGIAVMKFKNPPVNSLSLEFLTEFVISLEKLENDKSIRGVILTSERPGIFSAGLDLMEMYGRNPAHYAEYWKAVQELWLRLYLSNLTLISAINGASPAGGCLMALTCDYRIMADNSKYTIGLNESLLGIVAPFWLKDNYVNTIGHRAAERALQLGTLFPPAEALKVGLVDEVVPEDQVHSKARSVMAKWFTIPDHSRQLTKSMMRKATADNLIKQREADIQNFTSFISRDSIQKSLHVYLEKLKQKKG	soluble
FSSREQPQQNEGQIQKLNALKPDNRIESEGGLIETWNPNNKPFQCAGVALSRCTLNRNALRRPSYTNGPQEIYIQQGKGIFGMIYPGCPSTFEEPQQPQQRGQSSRPQDRHQKIYNFREGDLIAVPTGVAWWMYNNEDTPVVAVSIIDTNSLENQLDQMPRRFYLAGNQEQEFLKYQQEQGGHQSQKGKHQQEEENEGGSILSGFTLEFLEHAFSVDKQIAKNLQGENEGEDKGAIVTVKGGLSVIKPPTDEQQQRPQEEEEEEEDEKPQCKGKDKHCQRPRGSQSKSRRNGIDETICTMRLRHNIGQTSSPDIYNPQAGSVTTATSLDFPALSWLRLSAEFGSLRKNAMFVPHYNLNANSIIYALNGRALIQVVNCNGERVFDGELQEGRVLIVPQNFVVAARSQSDNFEYVSFKTNDTPMIGTLAGANSLLNALPEEVIQHTFNLKSQQARQIKNNNPFKFLVPPQESQKRAVA	soluble
FVNKDQIAKDVKQFYDQALQQAVVDDDANNAKAVVKTFHETLDCCGSSTLTALTTSVLKNNLCPSGSNIISNLFKEDCHQKIDDLFSGKH	soluble
GAEFKEKPEAPTEQLDVACGQENLPVGAWPPGAAPAPFQYTPDHVVGPGADIDPTQITFPGCICVKTPCLPGTCSCLRHGENYDDNSCLRDIGSGGKYAEPVFECNVLCRCSDHCRNRVVQKGLQFHFQVFKTHKKGWGLRTLEFIPKGRFVCEYAGEVLGFSEVQRRIHLQTKSDSNYIIAIREHVYNGQVMETFVDPTYIGNIGRFLNHSCEPNLLMIPVRIDSMVPKLALFAAKDIVPEEELSYDYSGRYLNLTVSASKERLDHGKLRKPCYCGAKSCTAFLPFDSS	soluble
GAMAPSTIWHCFLKGTRLCFHKESNKEWQDVEDFARAASCDNEEEIQMGTHKGYGSDGLKLLSHEESVSFGESVLKLTFDPGTVEDGLLTVECKLDHPFYVKNKGWSSFYPSLTVVQHGIPCCEIHIGDVCLPPGHPDAINF	soluble
